# B1: PA32-G3 Ab (antibody, human IgG3, kappa)
# heavy: EVQLVETGGGLAQPGGSLRLSCAASGFIFSDYYMDWVRQAPGKGPEWVASIKADGSETHYVDSVKGRFTISRDNAKNSLYLQMNSLRVEDTAVYYCGRDPGRRFDYWGQGTLVTVSSASTKGPSVFPLAPCSRSTSGGTAALGCLVKDYFPEPVTVSWNSGALTSGVHTFPAVLQSSGLYSLSSVVTVPSSSLGTQTYTCNVNHKPSNTKVDKRVELKTPLGDTTHTCPRCPEPKSCDTPPPCPRCPEPKSCDTPPPCPRCPEPKSCDTPPPCPRCPAPELLGGPSVFLFPPKPKDTLMISRTPEVTCVVVDVSHEDPEVQFKWYVDGVEVHNAKTKPREEQYNSTFRVVSVLTVLHQDWLNGKEYKCKVSNKALPAPIEKTISKTKGQPREPQVYTLPPSREEMTKNQVSLTCLVKGFYPSDIAVEWESSGQPENNYNTTPPMLDSDGSFFLYSKLTVDKSRWQQGNIFSCSVMHEALHNRFTQKSLSLSPGK
# light: not shown
# notes: Human IgG3
# B2: PA21-G3 Ab (antibody, human IgG3, kappa)
# heavy: EVQLVESGGGVVQPGGSLRLSCAASGFTFSSYGMHWVRQAPGKGLEWVSGISGDAGSTYYADSVKGRFTISRDNSKNTLYLQMNSLRAEDMAVYYCARVMNYYGPGSAFDYWGQGTLVTVSSASTKGPSVFPLAPCSRSTSGGTAALGCLVKDYFPEPVTVSWNSGALTSGVHTFPAVLQSSGLYSLSSVVTVPSSSLGTQTYTCNVNHKPSNTKVDKRVELKTPLGDTTHTCPRCPEPKSCDTPPPCPRCPEPKSCDTPPPCPRCPEPKSCDTPPPCPRCPAPELLGGPSVFLFPPKPKDTLMISRTPEVTCVVVDVSHEDPEVQFKWYVDGVEVHNAKTKPREEQYNSTFRVVSVLTVLHQDWLNGKEYKCKVSNKALPAPIEKTISKTKGQPREPQVYTLPPSREEMTKNQVSLTCLVKGFYPSDIAVEWESSGQPENNYNTTPPMLDSDGSFFLYSKLTVDKSRWQQGNIFSCSVMHEALHNRFTQKSLSLSPGK
# light: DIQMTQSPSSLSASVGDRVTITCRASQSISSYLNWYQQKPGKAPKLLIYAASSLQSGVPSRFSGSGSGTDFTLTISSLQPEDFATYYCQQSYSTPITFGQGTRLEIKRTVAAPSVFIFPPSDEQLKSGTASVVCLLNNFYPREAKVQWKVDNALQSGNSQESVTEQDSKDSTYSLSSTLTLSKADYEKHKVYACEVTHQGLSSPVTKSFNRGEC
# notes: Human IgG3
# B3: PA7.2-G3 Ab (antibody, human IgG3, kappa)
# heavy: EVQLVESRGGLVQPGGSLRLSCAASGFTFSNYAMSWVRQAPGKGLEWVSTISGSDGGTYYADSVKGRFTISRDNSGNTVYLQMNSLREDDTAVYYCARVGLSAPVTFFDFWGQGTLVTVSSASTKGPSVFPLAPCSRSTSGGTAALGCLVKDYFPEPVTVSWNSGALTSGVHTFPAVLQSSGLYSLSSVVTVPSSSLGTQTYTCNVNHKPSNTKVDKRVELKTPLGDTTHTCPRCPEPKSCDTPPPCPRCPEPKSCDTPPPCPRCPEPKSCDTPPPCPRCPAPELLGGPSVFLFPPKPKDTLMISRTPEVTCVVVDVSHEDPEVQFKWYVDGVEVHNAKTKPREEQYNSTFRVVSVLTVLHQDWLNGKEYKCKVSNKALPAPIEKTISKTKGQPREPQVYTLPPSREEMTKNQVSLTCLVKGFYPSDIAVEWESSGQPENNYNTTPPMLDSDGSFFLYSKLTVDKSRWQQGNIFSCSVMHEALHNRFTQKSLSLSPGK
# light: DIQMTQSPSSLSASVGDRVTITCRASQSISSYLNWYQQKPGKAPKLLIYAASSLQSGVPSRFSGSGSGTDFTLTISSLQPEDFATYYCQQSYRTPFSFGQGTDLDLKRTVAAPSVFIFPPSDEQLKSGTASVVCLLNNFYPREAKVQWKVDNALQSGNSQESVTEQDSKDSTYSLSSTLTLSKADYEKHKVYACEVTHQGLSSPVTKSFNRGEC
# notes: Human IgG3
# B4: PA27-G3 Ab (antibody, human IgG3, kappa)
# heavy: QVQLVESGGGLVQPGGSLRLSCAASGFTFSKYGMSWVRQAPGKGLEWVSTISGSGFTTYYADSVKGRFTISRDDFKNTLYLQMNSLRAEDTAVYYCAKDGWDYEDFFGSWGQGTLVTVSSASTKGPSVFPLAPCSRSTSGGTAALGCLVKDYFPEPVTVSWNSGALTSGVHTFPAVLQSSGLYSLSSVVTVPSSSLGTQTYTCNVNHKPSNTKVDKRVELKTPLGDTTHTCPRCPEPKSCDTPPPCPRCPEPKSCDTPPPCPRCPEPKSCDTPPPCPRCPAPELLGGPSVFLFPPKPKDTLMISRTPEVTCVVVDVSHEDPEVQFKWYVDGVEVHNAKTKPREEQYNSTFRVVSVLTVLHQDWLNGKEYKCKVSNKALPAPIEKTISKTKGQPREPQVYTLPPSREEMTKNQVSLTCLVKGFYPSDIAVEWESSGQPENNYNTTPPMLDSDGSFFLYSKLTVDKSRWQQGNIFSCSVMHEALHNRFTQKSLSLSPGK
# light: DIQMTQSPSSLSASVGDRVTITCRASQSISSYLNWYQQKPGKAPKLLIYAASSLQSGVPSRFSGSGSGTEFTLTITNLQPEDFGTYYCQQSYAFPYTFGQGTRLEIKRTVAAPSVFIFPPSDEQLKSGTASVVCLLNNFYPREAKVQWKVDNALQSGNSQESVTEQDSKDSTYSLSSTLTLSKADYEKHKVYACEVTHQGLSSPVTKSFNRGEC
# notes: Human IgG3
# B5: PA37-G3 Ab (antibody, human IgG3, kappa)
# heavy: EVQLLESGGGLVQPGGSRRLSCATSGLSFSSYAMNWVRQAPGKGLEWVSAISGSGDITHYADSVKGRLTISRDNSKNTVYLQMNSLRGEDTAVYYCAKGPWLAPGGWFDPWGQGTLVTVSSASTKGPSVFPLAPCSRSTSGGTAALGCLVKDYFPEPVTVSWNSGALTSGVHTFPAVLQSSGLYSLSSVVTVPSSSLGTQTYTCNVNHKPSNTKVDKRVELKTPLGDTTHTCPRCPEPKSCDTPPPCPRCPEPKSCDTPPPCPRCPEPKSCDTPPPCPRCPAPELLGGPSVFLFPPKPKDTLMISRTPEVTCVVVDVSHEDPEVQFKWYVDGVEVHNAKTKPREEQYNSTFRVVSVLTVLHQDWLNGKEYKCKVSNKALPAPIEKTISKTKGQPREPQVYTLPPSREEMTKNQVSLTCLVKGFYPSDIAVEWESSGQPENNYNTTPPMLDSDGSFFLYSKLTVDKSRWQQGNIFSCSVMHEALHNRFTQKSLSLSPGK
# light: not shown
# notes: Human IgG3
# B6: PA15-G3 Ab (antibody, human IgG3, kappa)
# heavy: EVQLVETGGGLVRPGGSLRLSCAASGLTFSTFAMNWVRQAPGKGLEWVSSISGSGGSTYYADSVKGRFTISRDNAKNTVYLQMNSLRAEDTAVYYCARDFNWDSGTMDLWGQGTTVTVSPASTKGPSVFPLAPCSRSTSGGTAALGCLVKDYFPEPVTVSWNSGALTSGVHTFPAVLQSSGLYSLSSVVTVPSSSLGTQTYTCNVNHKPSNTKVDKRVELKTPLGDTTHTCPRCPEPKSCDTPPPCPRCPEPKSCDTPPPCPRCPEPKSCDTPPPCPRCPAPELLGGPSVFLFPPKPKDTLMISRTPEVTCVVVDVSHEDPEVQFKWYVDGVEVHNAKTKPREEQYNSTFRVVSVLTVLHQDWLNGKEYKCKVSNKALPAPIEKTISKTKGQPREPQVYTLPPSREEMTKNQVSLTCLVKGFYPSDIAVEWESSGQPENNYNTTPPMLDSDGSFFLYSKLTVDKSRWQQGNIFSCSVMHEALHNRFTQKSLSLSPGK
# light: not shown
# notes: Human IgG3
# Target: T1, Staphylococcus aureus protein A (SpA), commercial wildtype (Staphylococcus aureus, UniProt A0A0H3K686 37-477, limits assumed)
# T1 construct: also called wildtype SpA; antigen
# T1 sequence (A0A0H3K686 37-477 limits assumed): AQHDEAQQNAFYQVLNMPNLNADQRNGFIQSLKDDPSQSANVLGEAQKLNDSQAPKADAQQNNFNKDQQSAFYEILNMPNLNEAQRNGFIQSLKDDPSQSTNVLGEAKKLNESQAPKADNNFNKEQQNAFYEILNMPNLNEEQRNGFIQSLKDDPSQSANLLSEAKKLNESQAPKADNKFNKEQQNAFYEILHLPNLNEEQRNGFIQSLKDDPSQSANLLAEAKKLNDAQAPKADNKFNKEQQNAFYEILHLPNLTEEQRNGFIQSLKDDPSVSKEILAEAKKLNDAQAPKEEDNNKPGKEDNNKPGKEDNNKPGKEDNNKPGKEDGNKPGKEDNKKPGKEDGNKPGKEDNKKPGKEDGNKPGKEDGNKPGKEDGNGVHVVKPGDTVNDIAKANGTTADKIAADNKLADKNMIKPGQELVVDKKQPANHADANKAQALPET
# Assay: Bio-Layer Interferometry (ForteBio Octet Red 96), 20 nM antigen; BLI, 20 nM antigen
row,Binder,Kd [pM]
1,B1,< 1
2,B2,< 1
3,B3,< 1
4,B4,< 1
5,B5,< 1
6,B6,< 1
